Patent US20070020706A1 (UNIVERSITY HOSPITALS OF CLEVELAND, published 2007)

B1: full-length human P2X7 receptor (receptor)
chain: MPACCSCSDVFQYETNKVTRIQSMNYGTIKWFFHVIIFSYVCFALVSDKLYQRKEPVISSVHTKVKGIAEVKEEIVENGVKKLVHSVFDTADYTFPLQGNSFFVMTNFLKTEGQEQRLCPEYPTRRTLCSSDRGCKKGWMDPQSKGIQTGRCVVHEGNQKTCEVSAWCPIEAVEEAPRPALLNSAENFTVLIKNNIDFPGHNYTTRNILPGLNITCTFHKTQNPQCPIFRLGDIFRETGDNFSDVAIQGGIMGIEIYWDCNLDRWFHHCHPKYSFRRLDDKTTNVSLYPGYNFRYAKYYKENNVEKRTLIKVFGIRFDILVFGTGGKFDIIQLVVYIGSTLSYFGLAAVFIDFLIDTYSSNCCRSHIYPWCKCCQPCVVNEYYYRKKCESIVEPKPTLKYVSFVDESHIRMVNQQLLGRSLQDVKGQEVPRPAMDFTDLSRLPLALHDTPPIPGQPEEIQLLRKEATPRSRDSPVWCQCGSCLPSQLPESHRCLEELCCRKKPGACITTSELFRKLVLSRHVLQFLLLYQEPLLALDVDSTNSRLRHCAYRCYATWRFGSQDMADFAILPSCCRWRIRKEFPKSEGQYSGFKSPY
notes: Expressed from cDNA in HEK-293 cells or endogenous in human cells and tissues (CaSki, HeLa, cervical tissue); Mostly assayed in cell extracts on immunoblots, where it runs as 65, 75 and 85 kDa forms; also called P2X7-RFL; P2X7-WT
B2: truncated P2X7-j receptor protein (receptor)
chain: MPACCSCSDVFQYETNKVTRIQSMNYGTIKWFFHVIIFSYVCFALVSDKLYQRKEPVISSVHTKVKGIAEVKEEIVENGVKKLVHSVFDTADYTFPLQGNSFFVMTNFLKTEGQEQRLCPEYPTRRTLCSSDRGCKKGWMDPQSKGIQTGRCVVHEGNQKTCEVSAWCPIEAVEEAPRPALLNSAENFTVLIKNNIDFPGHNYTTRNILPGLNITCTFHKTQNPQCPIFRLGDIFRETGDNFSDVAIQIRQVLQGKQC
notes: Untagged P2X7-j, expressed in HEK-293 cells or endogenous in human cancer cell lines; Runs as 42-45 kDa bands; also called P2X7-RTR

Key:
Experiment in all cases: densitometry of oligomer bands on an immunoblot, HEK293 cells co-expressing P2X7 and P2X7-j
[1] = biological target: the molecule itself
[2] = biological target: B2
[3] = biological target: B1

| relative band density (ratio) [2] | relative band density (ratio) [3] | Binder | relative band density (ratio) [1] |
| --- | --- | --- | --- |
| 5 ratio parts |  | B1 | 10 ratio parts |
|  | 15 ratio parts | B2 | 70 ratio parts |
